# Measured values published in patent publication US20160208003A1 (AFFITECH RESEARCH, published 2016).
# Where “and” joins values, the source holds several entries; their conditions need not be identical. Equal entries are not always repeated.
# T1: human CC chemokine receptor 4 (CCR4) (human, UniProt P51679 1-360)
# T1 construct: whole, on cells; Always presented on cells; also called CD194; human CCR4
# T1 sequence (looked up): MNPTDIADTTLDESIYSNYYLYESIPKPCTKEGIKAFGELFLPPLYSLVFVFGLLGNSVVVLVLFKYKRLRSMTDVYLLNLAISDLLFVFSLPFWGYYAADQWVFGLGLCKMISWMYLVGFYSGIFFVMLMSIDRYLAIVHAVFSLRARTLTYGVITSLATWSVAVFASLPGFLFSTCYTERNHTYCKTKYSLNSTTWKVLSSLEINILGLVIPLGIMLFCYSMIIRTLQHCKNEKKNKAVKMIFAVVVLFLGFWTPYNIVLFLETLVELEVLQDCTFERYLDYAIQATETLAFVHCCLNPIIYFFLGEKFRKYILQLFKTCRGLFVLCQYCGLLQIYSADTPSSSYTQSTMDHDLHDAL
# How the values were obtained:
# [1] = target: T1, human CC chemokine receptor 4 (CCR4); test: flow cytometry competition on DT-40-CCR4+ cells; IgG titrated, competitor biotinylated TARC (ca. 20 nM)
# Procedure: (§1) The competition binding assays were performed with biotinylated MDC or biotinylated TARC on DT-40-CCR4+ and CCRF-CEM cells. DT40 and CCRF-CEM cells were cultured as described in Example 2. TARC and MDC were biotinylated using standard procedures. The biotinylation process causes some losses, so the concentrations of biotinylated MDC and TARC recited herein are approximate.
# (§2) The cells were harvested from culture flasks, washed 2 times with PBS (400×g, 5 min, 4° C.) and resuspended in PBS containing 0.2% BSA and 0.09% NaN3. 1×10^5 cells per well were aliquoted into V-shaped 96-well plates (Greiner Bio-One, Frikenhausen, Germany). Cells were centrifuged (400×g, 5 min, 4° C.) and resuspended in 50 μl IgG, single chain or unlabeled ligand (1:10 dilution series starting on 100/500/26, 4 μg/ml) mixed with a fixed concentration of biotinylated ligand (10 or 20 nM, see legend to FIG. 24). The cells were incubated for 2 hours at 4° C. and mixed with a pipette every 45 min. The cells were washed three times with 150 μl PBS with 0.2% BSA and 0.09% NaN3 and stained with 3 μg/ml streptavidin PE (BD Biosciences) for 45 minutes at 4° C. […] Apparent binding affinities (KD) were calculated according to the following equation derived from previously described methods (Kipriyanov et al, 1997b; Schodin & Kranz, 1993): […]
# [2] = target: T1, human CC chemokine receptor 4 (CCR4); test: flow cytometry competition on DT-40-CCR4+ cells; IgG titrated, competitor biotinylated MDC (ca. 10 nM)
# Procedure: as §1, §2
# [3] = target: T1, human CC chemokine receptor 4 (CCR4); test: flow cytometry, IgG titration on CCR4+ HEK293T cells; one site-specific binding fit (Prism)
# Procedure: (§3) The IgG forms of antibodies 17G, 9E and KM3060var using various CCR4⁺ cell types were used (see Example 2).
# (§4) For the flow cytometry experiments, the cells were harvested from the culture flasks, washed 2 times with PBS, re-suspended in PBS with 0.2% BSA and 0.09% NaN₃ and finally aliquoted 1×10⁵ cells per well into V-shaped 96-well plates (Greiner Bio-One, Frickenhausen, Germany). Cells were centrifuged at 400×g for 5 min and then incubated at 4° C. for 45 min with different antibody dilutions.
# (§5) After washing with PBS with 0.2% BSA and 0.09% NaN₃, the cells were stained with 10 μg/ml of RPE-conjugated goat anti-human IgG (AbDSerotec, Düsseldorf, Germany) for 30 minutes at 4° C. The stained cells were washed, re-suspended in 200 μl PBS with 0.2% BSA and 0.09% NaN₃ and transferred to a U-shaped 96-well plate (Corning, Schiphol-Rijk, The Netherlands) for acquisition on EasyCyte flow cytometer (Guava Technologies, Hayward, Calif., USA).
# [4] = target: T1, human CC chemokine receptor 4 (CCR4); test: calculated from the IC50 (KD=IC50/(1+[bio-IgG 9E]/KD 9E)); DT-40-CCR4+ cells, competitor 3.3 nM biotinylated IgG 9E
# Procedure: DT40 and CCRF-CEM cells were cultivated as described in Example 2. The cells were harvested from culture flasks, washed 2 times with PBS (400×g, 5 min, 4° C.) and resuspended in PBS containing 0.2% BSA and 0.09% NaN3. 1×10^5 cells per well were aliquoted into V-shaped 96-well plates (Griner Bio-One, Frikenhausen, Germany). Cells were centrifuged (400×g, 5 min, 4° C.) and resuspended in 50 μl IgG 9E10J or KM3060var (dilution series starting at 5 μg/ml) mixed with biotinylated competitor antibody 9E (0.1 or 0.5 μg/ml). The cells were incubated for 2 hours at 4° C., mixing with a pipette every 45 min. The cells were washed three times with 150 μl PBS with 0.2% BSA and 0.09% NaN3 and stained with 3 μg/ml streptavidin PE (BD Biosciences) for 45 minutes at 4° C. Cells were washed, resuspended in 200 μl PBS with 0.2% BSA and 0.09% NaN3, and transferred to a U-shaped 96 well Costar (Corning, Schiphol-Rijik, The Netherlands) plate for flow cytometry using an FACS Canto II flow cytometer (BD Biosciences, Heidelberg, Germany).
# [5] = target: T1, human CC chemokine receptor 4 (CCR4); test: flow cytometry, IgG titration on CCR4+ DT40 cells (2); one site-specific binding fit (Prism)
# Procedure: as §3, §4, §5
binder,measurement,setting,value
"9E10J IgG (full length human IgG1, lambda) (antibody, V domains shown, also called IgG 9E10J; unmodified 9E10J) VH: QVQLVQSGAEVKKPGSSVKVSCKASGGTFSSYAISWVRQAPGQGLEWMGGIIPIFGTANYAQKFQGRVTMTRDTSTSTVYMELSSLRSEDTAVYYCARRGGSYFDYWGQGTLVTVSS VL: SYVLTQPPSASGTPGQSVTISCSGSTSNIGSHYVFWYQQLPGTAPRLLIYRNHQRPSGVPDRLSGSKSGTSASLAISGLRSEDEADYYCAVWDDTLSGWVFGGGTKLTVLG",IC50,[1],260 pM and 400 pM
same,IC50,[2],760 pM
"9E IgG (full length human IgG1, lambda) (antibody, V domains shown, also called IgG 9E; IgG1 9E) VH: QVQLVQSGAEVKKPGSSVKVSCKASGGTFSNYAISWVRQAPGQGLEWMGGIIPIFGTANYAQKFQGRVTITADESTSTAYMELSSLRSEDTAVYYCARRGGSYFDYWGQGTLVTVSS VL: SYVLTQPPSASGTPGQSVTISCSGSTSNIGSHYVFWYQQLPGTAPRLLIYRNHQRPSGVPDRLSGSKSGTSASLAISGLRSEDEADYYCAVWDDTLSGWVFGGGTKLTVLG",Kd,[3],360 pM
same,Kd,[4],2100 pM
same,Kd,[5],170 pM
